Assay results: patent publication US20150086555A1

Columns and labels:
Conditions in all cases: remark: other sources report otherwise
[1] = biological target: recombinant homotrimeric HA A/South Carolina/1/18 H1N1 (Influenza A virus A/South Carolina/1/18 (H1N1)); experiment: protein microarray, purified IgG, trimeric HA
[2] = biological target: recombinant homotrimeric HA A/Wisconsin/67/05 H3N2 (Influenza A virus A/Wisconsin/67/2005(H3N2)); experiment: protein microarray, purified IgG, trimeric HA
[3] = biological target: recombinant homotrimeric HA A/Hong Kong/156/97 H5N1 (Influenza A virus A/Hong Kong/156/97 (H5N1)); experiment: protein microarray, purified IgG, trimeric HA
[4] = biological target: recombinant homotrimeric HA A/Hong Kong/1073/99 H9N2 (Influenza A virus A/Hong Kong/1073/99 (H9N2)); experiment: protein microarray, purified IgG, trimeric HA
[5] = biological target: recombinant homotrimeric HA A/Solomon Islands/3/06 H1N1 (Influenza A virus A/Solomon Islands/3/2006(H1N1)); experiment: protein microarray, purified IgG, trimeric HA
[6] = biological target: recombinant homotrimeric HA A/California/4/09 H1N1 (Influenza A virus A/California/04/2009(H1N1)); experiment: protein microarray, purified IgG, trimeric HA
[7] = biological target: recombinant homotrimeric HA A/Anhui/1/05 H5N1 (Influenza A virus A/Anhui/1/2005(H5N1)); experiment: protein microarray, purified IgG, trimeric HA
[8] = biological target: recombinant homotrimeric HA A/Hong Kong/2108/03 H9N2 (Influenza A virus A/HK/2108/2003(H9N2)); experiment: protein microarray, purified IgG, trimeric HA
[9] = biological target: recombinant homotrimeric HA A/chicken/Vietnam/NCVD-016/08 H5N1 (Influenza A virus A/chicken/Vietnam/NCVD-016/2008(H5N1)); experiment: protein microarray, purified IgG, trimeric HA
[10] = biological target: recombinant homotrimeric HA A/northern shoveler/California/HKWF115/07 H6N4 (Influenza A virus A/northern shoveler/California/HKWF115/2007(H6N1)); experiment: protein microarray, purified IgG, trimeric HA
[11] = biological target: recombinant homotrimeric HA A/Japan/305/57 H2N2 (Influenza A virus A/Japan/305/1957(H2N2)); experiment: protein microarray, purified IgG, trimeric HA
[12] = biological target: recombinant homotrimeric HA A/Vietnam/1203/04 H5N1 (Influenza A virus A/VietNam/1203/2004(H5N1)); experiment: protein microarray, purified IgG, trimeric HA
[13] = biological target: recombinant homotrimeric HA A/Egypt/3300-NAMRU3/08 H5N1 (Influenza A virus A/Egypt/3300-NAMRU3/2008(H5N1)); experiment: protein microarray, purified IgG, trimeric HA
[14] = biological target: recombinant homotrimeric HA A/Netherlands/219/03 H7N7 (Influenza A virus A/Netherlands/219/03(H7N7)); experiment: protein microarray, purified IgG, trimeric HA
[15] = biological target: recombinant soluble homotrimeric HA of A/Solomon Islands/3/06 (H1N1) (Influenza A virus A/Solomon Islands/3/2006(H1N1)); experiment: HA microarray, BCC supernatant
[16] = biological target: recombinant soluble homotrimeric HA of A/duck/Yangzhou/02/05 (H8N4) (Influenza A virus A/duck/Yangzhou/02/2005(H8N4)); experiment: HA microarray, BCC supernatant
[17] = biological target: recombinant soluble homotrimeric HA of A/Indonesia/5/05 (H5N1) (Influenza A virus A/Indonesia/5/2005(H5N1)); experiment: HA microarray, BCC supernatant
[18] = biological target: recombinant soluble homotrimeric HA of A/Netherlands/219/03 (H7N7) (Influenza A virus A/Netherlands/219/03(H7N7)); experiment: HA microarray, BCC supernatant
[19] = biological target: recombinant soluble homotrimeric HA of A/swine/Ontario/01911-2/99 (H4N6) (Influenza A virus A/Swine/Ontario/01911-2/99 (H4N6)); experiment: HA microarray, BCC supernatant
[20] = biological target: recombinant soluble homotrimeric HA of A/Wisconsin/67/05 (H3N2) (Influenza A virus A/Wisconsin/67/2005(H3N2)); experiment: HA microarray, BCC supernatant
[21] = biological target: recombinant soluble homotrimeric HA of A/Vietnam/1203/04 (H5N1) (Influenza A virus A/VietNam/1203/2004(H5N1)); experiment: HA microarray, BCC supernatant
[22] = biological target: recombinant soluble homotrimeric HA of A/Anhui/1/05 (H5N1) (Influenza A virus A/Anhui/1/2005(H5N1)); experiment: HA microarray, BCC supernatant
[23] = biological target: recombinant soluble homotrimeric HA of A/Hong Kong/2108/03 (H9N2) (Influenza A virus A/HK/2108/2003(H9N2)); experiment: HA microarray, BCC supernatant
[24] = biological target: recombinant soluble homotrimeric HA of A/northern shoveler/California/HKWF115/07 (H6) (Influenza A virus A/northern shoveler/California/HKWF115/2007(H6N1)); experiment: HA microarray, BCC supernatant
[25] = biological target: recombinant soluble homotrimeric HA of A/Japan/305/57 (H2N2) (Influenza A virus A/Japan/305/1957(H2N2)); experiment: HA microarray, BCC supernatant
[26] = biological target: recombinant soluble homotrimeric HA of A/California/4/09 (H1N1) (Influenza A virus A/California/04/2009(H1N1)); experiment: HA microarray, BCC supernatant
[27] = biological target: recombinant soluble homotrimeric HA of A/chicken/Vietnam/NCVD-016/08 (H5N1) (Influenza A virus A/chicken/Vietnam/NCVD-016/2008(H5N1)); experiment: HA microarray, BCC supernatant
[28] = biological target: recombinant homotrimeric HA A/Indonesia/5/05 H5N1 (Influenza A virus A/Indonesia/5/2005(H5N1)); experiment: protein microarray, purified IgG, trimeric HA

B1: TCN-550 (5096_F06) (antibody, V domains shown)
VH: QVQLQESGPGLVKPSETLSLTCTVSGASINSHYWSWIRQPPGKGLEWIGYVYYSGSTTYNPSLKSRVTLSVDTSKNQFSLNLSSVTAADTAFYYCARHPYDVLTGSGDWFDPWGQGTLVTVSS
VL: SYVLTQAPSVSVAPGQTARITCGGNAIGSKKVHWYQHKAGQAPVLVVYDDTDRPSGIPERFSGSNSWSTATLTINRVEAGDEADYYCQVWDFTIDHVVFGGGTKLTVL
[1]
  Trimeric HA Binding: RLU: 104 RLU
[2]
  Trimeric HA Binding: RLU: 21300 RLU
[3]
  Trimeric HA Binding: RLU: 304 RLU
[4]
  Trimeric HA Binding: RLU: 413 RLU
[5]
  Trimeric HA Binding: RLU: 752 RLU
[6]
  Trimeric HA Binding: RLU: 238 RLU
[7]
  Trimeric HA Binding: RLU: 4780 RLU
[8]
  Trimeric HA Binding: RLU: 150 RLU
[9]
  Trimeric HA Binding: RLU: 295 RLU
[10]
  Trimeric HA Binding: RLU: 106 RLU
[11]
  Trimeric HA Binding: RLU: 499 RLU
[12]
  Trimeric HA Binding: RLU: 829 RLU
[13]
  Trimeric HA Binding: RLU: 3530 RLU
[14]
  Trimeric HA Binding: RLU: 223 RLU
[15]
  Trimeric HA Binding: RLU: 204 RLU
[16]
  Trimeric HA Binding: RLU: 407 RLU
[17]
  Trimeric HA Binding: RLU: 9100 RLU
[18]
  Trimeric HA Binding: RLU: 939 RLU
[19]
  Trimeric HA Binding: RLU: 195 RLU
[20]
  Trimeric HA Binding: RLU: 26300 RLU
[21]
  Trimeric HA Binding: RLU: 277 RLU
[22]
  Trimeric HA Binding: RLU: 1210 RLU
[23]
  Trimeric HA Binding: RLU: 2280 RLU
[24]
  Trimeric HA Binding: RLU: 964 RLU
[25]
  Trimeric HA Binding: RLU: 201 RLU
[26]
  Trimeric HA Binding: RLU: 454 RLU
[27]
  Trimeric HA Binding: RLU: 361 RLU

B2: TCN-530 (5248_H10a) (antibody, V domains shown)
VH: QVQLVQSGAEVRKPGSSVKVSCKASGGPFMSYAIGWVRQAPGQGLEWMGGINPVFGRPHYAQKFQGRVTIATDDSTKTSYMELSSLTSEDTGMYYCASRYSRSSPGTFESWGQGTLVTVSS
VL: EIVMTQFPATLSVSPGERVTLSCRASQSVSNNLAWYQQKPGQPPRLLIYDASTRATGVPAKFSGTGSGTEFTLSISSLQSEDFAVYYCQQYHNWPPSYSFGLGTKLEIK
[1]
  Trimeric HA Binding: RLU: 7360 RLU
[2]
  Trimeric HA Binding: RLU: 132 RLU
[3]
  Trimeric HA Binding: RLU: 14000 RLU
[4]
  Trimeric HA Binding: RLU: 874 RLU
[5]
  Trimeric HA Binding: RLU: 8570 RLU
[28]
  Trimeric HA Binding: RLU: 10900 RLU
[6]
  Trimeric HA Binding: RLU: 14200 RLU
[8]
  Trimeric HA Binding: RLU: 169 RLU
[9]
  Trimeric HA Binding: RLU: 2050 RLU
[10]
  Trimeric HA Binding: RLU: 9010 RLU
[11]
  Trimeric HA Binding: RLU: 9040 RLU
[12]
  Trimeric HA Binding: RLU: 19100 RLU
[13]
  Trimeric HA Binding: RLU: 12300 RLU
[14]
  Trimeric HA Binding: RLU: 402 RLU
[15]
  Trimeric HA Binding: RLU: 32800 RLU
[16]
  Trimeric HA Binding: RLU: 41700 RLU
[17]
  Trimeric HA Binding: RLU: 39800 RLU
[18]
  Trimeric HA Binding: RLU: 2900 RLU
[19]
  Trimeric HA Binding: RLU: 2740 RLU
[20]
  Trimeric HA Binding: RLU: 36800 RLU
[21]
  Trimeric HA Binding: RLU: 7150 RLU
[22]
  Trimeric HA Binding: RLU: 11900 RLU
[23]
  Trimeric HA Binding: RLU: 486 RLU
[24]
  Trimeric HA Binding: RLU: 45300 RLU
[25]
  Trimeric HA Binding: RLU: 47000 RLU
[26]
  Trimeric HA Binding: RLU: 46600 RLU
[27]
  Trimeric HA Binding: RLU: 48300 RLU

B3: TCN-535 (5246_P19) (antibody, V domains shown)
VH: QVQLVQSGSEVKKPGTSVKVSCTASGSVFTNYGISWVRQAPGQGLEWMGGIIPLFGAAKYAQKFQGRVTITADESTKTVYMELSRLTSKDTAIYFCAKAPRVYEYYFDQWGQGTPVTVSS
VL: EIVLTQSPGTLSLSPGERATLSCRASQSVSSSQLAWYQQKPGQAPRLIIYGASTRATGIPDRFSGSGSGTDFTLTIGRLEPEDFAVFFCQQYSTSPPTFGQGTKVDFK
[1]
  Trimeric HA Binding: RLU: 5660 RLU
[2]
  Trimeric HA Binding: RLU: 148 RLU
[3]
  Trimeric HA Binding: RLU: 13200 RLU
[4]
  Trimeric HA Binding: RLU: 3470 RLU
[5]
  Trimeric HA Binding: RLU: 11300 RLU
[28]
  Trimeric HA Binding: RLU: 17900 RLU
[6]
  Trimeric HA Binding: RLU: 17200 RLU
[7]
  Trimeric HA Binding: RLU: 6700 RLU
[9]
  Trimeric HA Binding: RLU: 2630 RLU
[10]
  Trimeric HA Binding: RLU: 5880 RLU
[11]
  Trimeric HA Binding: RLU: 13000 RLU
[12]
  Trimeric HA Binding: RLU: 20800 RLU
[13]
  Trimeric HA Binding: RLU: 18100 RLU
[14]
  Trimeric HA Binding: RLU: 339 RLU
[15]
  Trimeric HA Binding: RLU: 39400 RLU
[16]
  Trimeric HA Binding: RLU: 36600 RLU
[17]
  Trimeric HA Binding: RLU: 45600 RLU
[18]
  Trimeric HA Binding: RLU: 4760 RLU
[19]
  Trimeric HA Binding: RLU: 5950 RLU
[20]
  Trimeric HA Binding: RLU: 34300 RLU
[21]
  Trimeric HA Binding: RLU: 4740 RLU
[22]
  Trimeric HA Binding: RLU: 6880 RLU
[23]
  Trimeric HA Binding: RLU: 861 RLU
[24]
  Trimeric HA Binding: RLU: 48200 RLU
[25]
  Trimeric HA Binding: RLU: 26100 RLU
[26]
  Trimeric HA Binding: RLU: 48600 RLU
[27]
  Trimeric HA Binding: RLU: 50000 RLU
